From patent publication US20120149028A1 (LUDWIG MAXIMILIANS UNIVERSITAT M NCHEN, published 2012)

Target: T1, endogenous PCNA (proliferating cell nuclear antigen) in HeLa cells (human (endogenous in HeLa cells), UniProt P12004 1-261)
T1 construct: whole, on cells; Intracellular (nuclear) endogenous protein in living or fixed HeLa cells, not on the surface
Assay: GFP fusion expressed in HeLa cells, epifluorescence microscopy
Procedure: First, it was investigated, whether transiently expressed PCNA3p16-GFP colocalizes with RFP-PCNA or HcRedLigase, another S phase marker. To do so, HeLa cells were seeded on coverslips and transiently double transfected with expression vectors coding for RFP-PCNA or HcRed-Ligase and vector coding for PCNA-Chromobody PCNA3p16-GFP. 24 h after transfection cells were fixed in 4% PFA for 15 minutes at room temperature, permeabilized with 0,2% Triton-X-100 in PBS and the DNA was counterstained with DAPI. Slides were mounted in VectaShield and further analyzed by epifluorescence microscopy with appropriate filtersets for DAPI (D360_{—}40X/HQ460_{—}40M), GFP (HQ480_{—}40X/HQ535_{—}50M) and red fluorescent proteins (HQ565_{—}30X/HQ620_{—}60M) and an 63X/1.3 NA Plan Apo oil objective. As expected, RFP-PCNA as well as HcRed-Ligase localized to DNA replication sites in the nucleus of the cells. In both cases a colocalization of RFP-PCNA and HcRed-Ligase with the Chromobody PCNA3p16-GFP was detected (FIG. 3 A). […]
To confirm that PCNA3p16-GFP recognizes endogenous PCNA located at active DNA replication sites, an antibody staining against PCNA and a BrdU pulse-chase experiment were performed. […] The primary anti-PCNA antibody (clone 16D10) (1:400) was detected by a secondary antibody coupled to the fluorescent dye Alexa568. […]

T1 sequence (P12004 whole entry): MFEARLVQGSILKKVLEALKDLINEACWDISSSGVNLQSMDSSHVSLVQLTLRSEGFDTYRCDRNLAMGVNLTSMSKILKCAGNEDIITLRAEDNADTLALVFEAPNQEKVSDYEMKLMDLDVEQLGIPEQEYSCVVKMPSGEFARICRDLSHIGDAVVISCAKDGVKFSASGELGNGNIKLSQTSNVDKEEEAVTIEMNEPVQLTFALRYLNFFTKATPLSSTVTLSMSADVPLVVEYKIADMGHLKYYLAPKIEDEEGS

binding result: binds
B1: variant PCNA-Chromobody of SEQ ID NO 18 fused to GFP (VHH)
VHH: NVQLNESGGGLVQPGGSLRLSCAASGFTFSSYAMSWVRQAPGKGLEWVSEISPSGAVKAYSDSVKGRFTISRDNAKNRLYLQMNSLTPEDTGEYFCTKVQSPRTRIPAPSSQGTQVTVSS
notes: Expressed in HeLa cells as a GFP fusion; not shown: linker and GFP
